Measurements as given in article doi:10.1101/2023.08.08.552518.

Target: human alpha-thrombin (human, UniProt P00734;P00734 328-363;364-622)
Test: BLI

GGTTGGTGTGGTTGG (structured_DNA) [TBA-Bt]
Kd: 114 nM

TCACTGTGGTTGGTGTGGTTGGTTTTTTTTTTTTACAGTG (structured_DNA) [ISD-Bt]
Kd: 246 nM
